# Laboratory results reported in the supplement of paper PMC10567573.
# B1: FAM46C (parent)
# chain: VRSRLEEAGIKVHDVRLNGSAAGH
# B2: TRAF3IP2 (parent)
# chain: FMEKRNQWLVSQLSAASPDTGHDS
# Variants of: B1
# Assay: protein stability index of a GFP-peptide fusion (GPS, HEK-293T) (PSI 1-6); higher = more stable
# Settings: c terminus: a fixed tail appended
# 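Further: lentivirally expressed fusions sorted by FACS into six bins by GFP to DsRed ratio, PSI derived from sequencing read proportions per bin multiplied by bin number.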
row,Variant,protein stability index
1,VRSRLEEAGIKVHDVRLNGSAANH [G23N],2.55
2,VRSRLEEAGIKVHDVRLNGSAAHH [G23H],2.85
3,VRSRLEEAGIKVHDVRLNGSAAAH [G23A],2.92
4,VRSRLEEAGIKVHDVRLNGSAAFH [G23F],2.94
5,VRSRLEEAGIKVHDVRLNGSAAWH [G23W],2.18
6,VRSRLEEAGIKVHDVRLNGSAARH [G23R],2.38
7,VRSRLEEAGIKVHDVRLNGSAAMH [G23M],1.62
8,VRSRLEEAGIKVHDVRLNGSAADH [G23D],2.44
9,VRSRLEEAGIKVHDVRLNGSAAQH [G23Q],1.2
10,VRSRLEEAGIKVHDVRLNGSAAYH [G23Y],2.18
11,VRSRLEEAGIKVHDVRLNGSAATH [G23T],3.09
12,VRSRLEEAGIKVHDVRLNGSAALH [G23L],1.64
13,VRSRLEEAGIKVHDVRLNGSAAVH [G23V],1.82
14,VRSRLEEAGIKVHDVRLNGSAAIH [G23I],1.6
15,VRSRLEEAGIKVHDVRLNGSAACH [G23C],1.64
16,VRSRLEEAGIKVHDVRLNGSAASH [G23S],2.6
17,VRSRLEEAGIKVHDVRLNGSAAKH [G23K],2.25
18,VRSRLEEAGIKVHDVRLNGSRAGH [A21R],2.83
19,VRSRLEEAGIKVHDVRLNGSIAGH [A21I],2.44
20,VRSRLEEAGIKVHDVRLNGSPAGH [A21P],1.8
21,VRSRLEEAGIKVHDVRLNGSEAGH [A21E],2.53
22,VRSRLEEAGIKVHDVRLNGSWAGH [A21W],1.56
23,VRSRLEEAGIKVHDVRLNGSYAGH [A21Y],1.56
24,VRSRLEEAGIKVHDVRLNGSCAGH [A21C],1.73
25,VRSRLEEAGIKVHDVRLNGSSAGH [A21S],2.32
26,VRSRLEEAGIKVHDVRLNGSDAGH [A21D],3.13
27,VRSRLEEAGIKVHDVRLNGSKAGH [A21K],4.25
28,VRSRLEEAGIKVHDVRLNGSQAGH [A21Q],1.72
29,VRSRLEEAGIKVHDVRLNGSGAGH [A21G],3.12
30,VRSRLEEAGIKVHDVRLNGSTAGH [A21T],2.51

# Variants of: B2
# Assay: as above
# Settings: c terminus: a fixed tail appended
row,Variant,protein stability index
1,DMEKRNQWLVSQLSAASPDTGHDS [F1D],5.05
2,LMEKRNQWLVSQLSAASPDTGHDS [F1L],3.88
3,WMEKRNQWLVSQLSAASPDTGHDS [F1W],3.17
4,YMEKRNQWLVSQLSAASPDTGHDS [F1Y],2.84
5,QMEKRNQWLVSQLSAASPDTGHDS [F1Q],4.88
6,RMEKRNQWLVSQLSAASPDTGHDS [F1R],4.48
7,PMEKRNQWLVSQLSAASPDTGHDS [F1P],3.95
8,MMEKRNQWLVSQLSAASPDTGHDS [F1M],3.56
9,SMEKRNQWLVSQLSAASPDTGHDS [F1S],4.37
10,IMEKRNQWLVSQLSAASPDTGHDS [F1I],3.72
11,CMEKRNQWLVSQLSAASPDTGHDS [F1C],3.98
12,KMEKRNQWLVSQLSAASPDTGHDS [F1K],3.71
13,AMEKRNQWLVSQLSAASPDTGHDS [F1A],4.91
14,TMEKRNQWLVSQLSAASPDTGHDS [F1T],4.2
15,NMEKRNQWLVSQLSAASPDTGHDS [F1N],4.36
16,HMEKRNQWLVSQLSAASPDTGHDS [F1H],4.84
17,GMEKRNQWLVSQLSAASPDTGHDS [F1G],4.26
18,EMEKRNQWLVSQLSAASPDTGHDS [F1E],4.77
19,VMEKRNQWLVSQLSAASPDTGHDS [F1V],4.55
20,FMEARNQWLVSQLSAASPDTGHDS [K4A],1.71
21,FMELRNQWLVSQLSAASPDTGHDS [K4L],2.26
22,FMEPRNQWLVSQLSAASPDTGHDS [K4P],2.36

row,Variant,protein stability index
1,FMEHRNQWLVSQLSAASPDTGHDS [K4H],2.16
2,FMEFRNQWLVSQLSAASPDTGHDS [K4F],2.35
3,FMENRNQWLVSQLSAASPDTGHDS [K4N],2.38
4,FMEERNQWLVSQLSAASPDTGHDS [K4E],3.69
5,FMEIRNQWLVSQLSAASPDTGHDS [K4I],2.6
6,FMEGRNQWLVSQLSAASPDTGHDS [K4G],1.89
7,FMEMRNQWLVSQLSAASPDTGHDS [K4M],2.51
8,FMEDRNQWLVSQLSAASPDTGHDS [K4D],3
9,FNEKRNQWLVSQLSAASPDTGHDS [M2N],3.29
10,FCEKRNQWLVSQLSAASPDTGHDS [M2C],2.94
11,FTEKRNQWLVSQLSAASPDTGHDS [M2T],2.55
12,FDEKRNQWLVSQLSAASPDTGHDS [M2D],3.06
13,FREKRNQWLVSQLSAASPDTGHDS [M2R],3.56
14,FHEKRNQWLVSQLSAASPDTGHDS [M2H],1.58
15,FLEKRNQWLVSQLSAASPDTGHDS [M2L],2.46
16,FEEKRNQWLVSQLSAASPDTGHDS [M2E],4.75
17,FPEKRNQWLVSQLSAASPDTGHDS [M2P],1.42
18,FKEKRNQWLVSQLSAASPDTGHDS [M2K],4.28
19,FSEKRNQWLVSQLSAASPDTGHDS [M2S],2.2
20,FIEKRNQWLVSQLSAASPDTGHDS [M2I],1.25
21,FQEKRNQWLVSQLSAASPDTGHDS [M2Q],3.27
22,FYEKRNQWLVSQLSAASPDTGHDS [M2Y],2.97

row,Variant,protein stability index
1,FFEKRNQWLVSQLSAASPDTGHDS [M2F],3.6
2,FWEKRNQWLVSQLSAASPDTGHDS [M2W],3.41
3,FMIKRNQWLVSQLSAASPDTGHDS [E3I],2.32
4,FMCKRNQWLVSQLSAASPDTGHDS [E3C],1.58
5,FMKKRNQWLVSQLSAASPDTGHDS [E3K],2.91
6,FMVKRNQWLVSQLSAASPDTGHDS [E3V],1.95
7,FMRKRNQWLVSQLSAASPDTGHDS [E3R],1.05
8,FMAKRNQWLVSQLSAASPDTGHDS [E3A],3
9,FMSKRNQWLVSQLSAASPDTGHDS [E3S],1.77
10,FMHKRNQWLVSQLSAASPDTGHDS [E3H],1.71
11,FMDKRNQWLVSQLSAASPDTGHDS [E3D],2.24
12,FMPKRNQWLVSQLSAASPDTGHDS [E3P],1.93
13,FMFKRNQWLVSQLSAASPDTGHDS [E3F],2.94
14,FMMKRNQWLVSQLSAASPDTGHDS [E3M],2.28
15,FMNKRNQWLVSQLSAASPDTGHDS [E3N],1.97
16,FMYKRNQWLVSQLSAASPDTGHDS [E3Y],3.02
17,FMLKRNQWLVSQLSAASPDTGHDS [E3L],2.75
18,FMWKRNQWLVSQLSAASPDTGHDS [E3W],1.81
19,FMTKRNQWLVSQLSAASPDTGHDS [E3T],3.83
20,FMQKRNQWLVSQLSAASPDTGHDS [E3Q],2.27
